Results as given in US20250115669A1, “FGFR1/KLB Targeting Agonistic Antigen-Binding Proteins and Conjugates Thereof with GLP-1R Agonistic Peptides” (SANOFI, priority 2020, published 2025).

Assays:
[1] = In vivo PK in transgenic humanized FcRn mice (Tg32); conditions: 0.3 mg/kg single IV, plasma, noncompartmental analysis
Procedure: In vivo PK studies were conducted in transgenic humanized FcRn mice (Tg32). For these studies, no GLP compliance was claimed.

[2] = Nano differential scanning fluorimetry (nanoDSF), Tonset and Tm; assay type: physicochemical
Procedure: Onset temperatures (Tonset) and melting points (Tm) of protein denaturation were determined using nano differential scanning fluorimetry (nanoDSF). Samples were diluted in formulation buffer to a final concentration of 0.5 mg/mL and loaded into nanoDSF capillaries in duplicates (Nanotemper Technologies). All measurements were done using a Prometheus NT.plex nanoDSF device (Nanotemper Technologies). Heating rate was 1° C. per minute from 20° C. to 95° C. Data were recorded using PR.ThermControl Software v2.3.1 (Nanotemper Technologies) and analyzed using PR.Stability Analysis Software v1.0.3 (Nanotemper Technologies).

[3] = Capillary gel electrophoresis (cGE); assay type: physicochemical
Procedure: Capillary Gel Electrophoresis (cGE) Purity and size heterogeneity of the samples was determined by capillary gel electrophoresis (cGE) using a CES18000 instrument (SCIEX) equipped with a pre-assembled fused silica capillary (50 μm×300 mm, SCIEX). Protein samples at 1 mg/ml were prepared using the IgG purity heterogeneity Kit (SCIEX) under non-reducing conditions according to the manufacturer's specifications. Samples were electrophoretically separated for 35 minutes at 25° C. and the absorbance at 220 nm was recorded by a photo diode array (PDA) detector. The data were analyzed using 32 Karat Software (SCIEX).

[4] = Hydrophobic interaction chromatography (HIC); assay type: physicochemical
Procedure: The analysis was run at a flow rate of 1 mL/min with detection at 280 nm. 5 μg of undiluted protein sample were applied onto the column. Gradient elution was from 15% B to 85% B in 7 min followed by 1 min to 100% B, then 1 min to 15% B and then 3 minutes equilibration at 15% B. Buffer A was composed of 1.5 mol/L ammonium sulfate, 25 mmol/L sodium phosphate pH 7.0. Buffer B was composed of 25 mmol/L sodium phosphate pH 7.0. Data evaluation was performed either using LabSolutions software v5.85 (Shimadzu) or Chromeleon 7 software (Thermo Fisher Scientific).

[5] = Dynamic light scattering (DLS) and diffusion interaction parameter (kD); assay type: physicochemical
Procedure: Dynamic light scattering (DLS) was performed using a DynaPro Plate Reader (Wyatt Technology). The samples were measured in 384 well assay plates (Corning) at 25° C. Data were evaluated by cumulant fitting using Dynamics Software version 7.7.0.125 (Wyatt Technology).
Colloidal stability of the samples was assessed by measuring the diffusion interaction parameter (kD) at 20° C. using a DynaPro Plate Reader (Wyatt Technology). Before the measurements the samples were buffer exchanged against 5 L of 10 mmol/L Histidine pH 6.0 by dialysis for 20 h with one buffer change using 1 mL Float-A-Lyzer G2 devices with 3.5-5 kDa cut-off (Spectrum Labs). A dilution series from 1 to 4.5 mg/mL, in 0.5 mg/mL increments, was prepared in 10 mmol/L Histidine pH 6.0 and measured in 384 well assay plates (Corning).

[6] = Size-exclusion chromatography (SEC); assay type: physicochemical
Procedure: Analytical SEC was performed using a BioSECcurity instrument (PSS Polymer) with an AdvanceBio 300 column (4.6 mm×300 mm) and AdvanceBio 300 guard column (Agilent Technologies) at room temperature. The analysis was run at a flow rate of 0.5 mL/min using 2× concentrated D-PBS buffer (Thermo Fisher Scientific) with detection at 280 nm. 10 μL of protein sample (at 1 mg/mL) were applied onto the column. Data evaluation was performed using WinGPC software v8.1 (PSS Polymer). For estimation of the molecular weight, the SEC column was calibrated with the AdvanceBio SEC 300 Å Protein Standard (Agilent Technologies).

[7] = In vivo PK in cynomolgus monkeys, single intravenous dose; set-up: species or system Cynomolgus monkey (Macaca fascicularis); conditions: Macaca fascicularis, 3.0 mg/kg single IV, plasma
Procedure: Naive cynomolgus monkeys received a single intravenous dose of mAb according to the following table:
In all investigations, the animals were evaluated twice daily for post-dose mortality/moribundity and cage side clinical observations were carried out after each study blood collection time. Studies were Non-GLP, nevertheless, these studies have been conducted in a GLP compliant facility using practices detailed in Standard Operating Procedures consistent with the principles of GLP (Test facility: Sanofi and Charles River Laboratories). Plasma concentrations and pharmacokinetic parameters of the tested antibodies were investigated after single intravenous administration.

Ab0428: IgG1 NNAS; 16H7 VL (N25S, D49S, D50E, D91E, N93E); 16H7 VH (M34V, I83T, D109E); HC SEQ ID NO: 41, LC SEQ ID NO: 48
t½ [1]: 13.8 days | Thermal stability DSF Tm [2]: 62 °C | Thermal stability DSF Tonset [2]: 48 °C | DSF Tm ([2]; pH 5, 40° C., d 21): 59 °C | DSF Tonset ([2]; pH 5, 40° C., d 21): 51 °C | DSF Tm ([2]; pH 5, d 0): 59 °C | DSF Tonset ([2]; pH 5, d 0): 50 °C | DSF Tm ([2]; pH 6, 40° C., d 21): 62 °C | DSF Tonset ([2]; pH 6, 40° C., d 21): 47 °C | DSF Tm ([2]; pH 6, d 0): 62 °C | DSF Tonset ([2]; pH 6, d 0): 48 °C | DSF Tm ([2]; pH 8, 40° C., d 21): 67 °C | DSF Tonset ([2]; pH 8, 40° C., d 21): 56 °C | DSF Tm ([2]; pH 8, d 0): 68 °C | DSF Tonset ([2]; pH 8, d 0): 54 °C | Homogeneity cGE % Monomer [3]: 71% | Hydrophobic variance HIC Number of peaks [4]: 1 | HIC Number of peaks ([4]; pH 5, 40° C., d 21): 1 | HIC Number of peaks ([4]; pH 5, d 0): 1 | HIC Number of peaks ([4]; pH 6, 40° C., d 21): 1 | HIC Number of peaks ([4]; pH 6, d 0): 1 | HIC Number of peaks ([4]; pH 8, 40° C., d 21): 1 | HIC Number of peaks ([4]; pH 8, d 0): 1 | Homogeneity DLS Hydrodynamic radius [5]: 5.4 nm | DLS Hydrodynamic radius ([5]; pH 5, 40° C., d 21): 5.5 nm | DLS Hydrodynamic radius ([5]; pH 5, d 0): 5.4 nm | DLS Hydrodynamic radius ([5]; pH 6, 40° C., d 21): 5.3 nm | DLS Hydrodynamic radius ([5]; pH 6, d 0): 5.4 nm | DLS Hydrodynamic radius ([5]; pH 8, 40° C., d 21): 6.1 nm | DLS Hydrodynamic radius ([5]; pH 8, d 0): 5.4 nm | SEC % HMW ([6]; pH 5, 40° C., d 21): 1% | SEC % LMW ([6]; pH 5, 40° C., d 21): 2% | SEC % HMW ([6]; pH 5, d 0): 2% | SEC % LMW ([6]; pH 5, d 0): 0% | SEC % HMW ([6]; pH 6, 40° C., d 21): 0% | SEC % LMW ([6]; pH 6, 40° C., d 21): 2% | SEC % HMW ([6]; pH 6, d 0): 1% | SEC % LMW ([6]; pH 6, d 0): 0% | SEC % HMW ([6]; pH 8, 40° C., d 21): 1% | SEC % LMW ([6]; pH 8, 40° C., d 21): 3% | SEC % HMW ([6]; pH 8, d 0): 1% | SEC % LMW ([6]; pH 8, d 0): 0%

Ab0429: IgG1 NNAS; 16H7 VL (N25S, D49S, D50A, D91E, N93E); 16H7 VH (M34V, I83T, D109E); HC SEQ ID NO: 42, LC SEQ ID NO: 49
t½ [1]: 13.9 days | Thermal stability DSF Tm [2]: 62 °C | Thermal stability DSF Tonset [2]: 50 °C | DSF Tm ([2]; pH 5, 40° C., d 21): 60 °C | DSF Tonset ([2]; pH 5, 40° C., d 21): 51 °C | DSF Tm ([2]; pH 5, d 0): 58 °C | DSF Tonset ([2]; pH 5, d 0): 51 °C | DSF Tm ([2]; pH 6, 40° C., d 21): 62 °C | DSF Tonset ([2]; pH 6, 40° C., d 21): 48 °C | DSF Tm ([2]; pH 6, d 0): 62 °C | DSF Tonset ([2]; pH 6, d 0): 50 °C | DSF Tm ([2]; pH 8, 40° C., d 21): 69 °C | DSF Tonset ([2]; pH 8, 40° C., d 21): 55 °C | DSF Tm ([2]; pH 8, d 0): 63 °C | DSF Tonset ([2]; pH 8, d 0): 53 °C | t½ [7]: 7.62 days | Homogeneity cGE % Monomer [3]: 66% | Hydrophobic variance HIC Number of peaks [4]: 1 | HIC Number of peaks ([4]; pH 5, 40° C., d 21): 1 | HIC Number of peaks ([4]; pH 5, d 0): 1 | HIC Number of peaks ([4]; pH 6, 40° C., d 21): 1 | HIC Number of peaks ([4]; pH 6, d 0): 1 | HIC Number of peaks ([4]; pH 8, 40° C., d 21): 1 | HIC Number of peaks ([4]; pH 8, d 0): 1 | Homogeneity DLS Hydrodynamic radius [5]: 5.3 nm | DLS Hydrodynamic radius ([5]; pH 5, 40° C., d 21): 5.4 nm | DLS Hydrodynamic radius ([5]; pH 5, d 0): 5.4 nm | DLS Hydrodynamic radius ([5]; pH 6, 40° C., d 21): 5.5 nm | DLS Hydrodynamic radius ([5]; pH 6, d 0): 5.4 nm | DLS Hydrodynamic radius ([5]; pH 8, 40° C., d 21): 6.3 nm | DLS Hydrodynamic radius ([5]; pH 8, d 0): 5.3 nm | SEC % HMW ([6]; pH 5, 40° C., d 21): 1% | SEC % LMW ([6]; pH 5, 40° C., d 21): 2% | SEC % HMW ([6]; pH 5, d 0): 2% | SEC % LMW ([6]; pH 5, d 0): 0% | SEC % HMW ([6]; pH 6, 40° C., d 21): 0% | SEC % LMW ([6]; pH 6, 40° C., d 21): 1% | SEC % HMW ([6]; pH 6, d 0): 0% | SEC % LMW ([6]; pH 6, d 0): 0% | SEC % HMW ([6]; pH 8, 40° C., d 21): 1% | SEC % LMW ([6]; pH 8, 40° C., d 21): 3% | SEC % HMW ([6]; pH 8, d 0): 2% | SEC % LMW ([6]; pH 8, d 0): 0%

Ab0430: IgG1 NNAS; 16H7 VL (N25S, D49E, D50E, D91E, N93E); 16H7 VH (M34V, I83T, D109E); HC SEQ ID NO: 43, LC SEQ ID NO: 50
t½ [1]: 15.7 days | Thermal stability DSF Tm [2]: 62 °C | Thermal stability DSF Tonset [2]: 45 °C | DSF Tm ([2]; pH 5, 40° C., d 21): 62 °C | DSF Tonset ([2]; pH 5, 40° C., d 21): 46 °C | DSF Tm ([2]; pH 5, d 0): 62 °C | DSF Tonset ([2]; pH 5, d 0): 45 °C | DSF Tm ([2]; pH 6, 40° C., d 21): 62 °C | DSF Tonset ([2]; pH 6, 40° C., d 21): 46 °C | DSF Tm ([2]; pH 6, d 0): 62 °C | DSF Tonset ([2]; pH 6, d 0): 45 °C | DSF Tm ([2]; pH 8, 40° C., d 21): 66 °C | DSF Tonset ([2]; pH 8, 40° C., d 21): 56 °C | DSF Tm ([2]; pH 8, d 0): 66 °C | DSF Tonset ([2]; pH 8, d 0): 56 °C | Homogeneity cGE % Monomer [3]: 62% | Hydrophobic variance HIC Number of peaks [4]: 1 | HIC Number of peaks ([4]; pH 5, 40° C., d 21): 1 | HIC Number of peaks ([4]; pH 5, d 0): 1 | HIC Number of peaks ([4]; pH 6, 40° C., d 21): 1 | HIC Number of peaks ([4]; pH 6, d 0): 1 | HIC Number of peaks ([4]; pH 8, 40° C., d 21): 1 | HIC Number of peaks ([4]; pH 8, d 0): 1 | Homogeneity DLS Hydrodynamic radius [5]: 5.4 nm | DLS Hydrodynamic radius ([5]; pH 5, 40° C., d 21): 5.4 nm | DLS Hydrodynamic radius ([5]; pH 5, d 0): 5.4 nm | DLS Hydrodynamic radius ([5]; pH 6, 40° C., d 21): 5.4 nm | DLS Hydrodynamic radius ([5]; pH 6, d 0): 5.4 nm | DLS Hydrodynamic radius ([5]; pH 8, 40° C., d 21): 6.3 nm | DLS Hydrodynamic radius ([5]; pH 8, d 0): 5.4 nm | SEC % HMW ([6]; pH 5, 40° C., d 21): 1% | SEC % LMW ([6]; pH 5, 40° C., d 21): 2% | SEC % HMW ([6]; pH 5, d 0): 1% | SEC % LMW ([6]; pH 5, d 0): 0% | SEC % HMW ([6]; pH 6, 40° C., d 21): 0% | SEC % LMW ([6]; pH 6, 40° C., d 21): 2% | SEC % HMW ([6]; pH 6, d 0): 1% | SEC % LMW ([6]; pH 6, d 0): 0% | SEC % HMW ([6]; pH 8, 40° C., d 21): 1% | SEC % LMW ([6]; pH 8, 40° C., d 21): 4% | SEC % HMW ([6]; pH 8, d 0): 2% | SEC % LMW ([6]; pH 8, d 0): 0%
